# Measured values from patent US20220177583A1 (University of California, published 2022).
# Changes are numbered by the printed parent chain.
# T1: human CLDN6, endogenously expressed on cancer cell lines (human, UniProt P56747 1-220)
# T1 construct: also called Endogenous CLDN6+; CLDN6 on ARK2, OVCA429, UMUC4 cells
# T1 sequence: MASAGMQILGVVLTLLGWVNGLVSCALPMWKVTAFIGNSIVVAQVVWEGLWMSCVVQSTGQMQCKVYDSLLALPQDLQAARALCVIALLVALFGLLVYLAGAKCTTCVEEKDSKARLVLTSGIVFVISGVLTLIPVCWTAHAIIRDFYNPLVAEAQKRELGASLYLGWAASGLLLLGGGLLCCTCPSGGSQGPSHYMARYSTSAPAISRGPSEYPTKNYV
# T2: mouse CLDN6 fused to GFP, expressed on engineered HEK293T cells (mouse, UniProt Q9Z262 1-219)
# T2 construct: whole, on cells; also called HEK293T-CLDN6-mGFP Artificial CLDN6+ (mouse); murine CLDN6; not shown: GFP tag
# T2 sequence (looked up): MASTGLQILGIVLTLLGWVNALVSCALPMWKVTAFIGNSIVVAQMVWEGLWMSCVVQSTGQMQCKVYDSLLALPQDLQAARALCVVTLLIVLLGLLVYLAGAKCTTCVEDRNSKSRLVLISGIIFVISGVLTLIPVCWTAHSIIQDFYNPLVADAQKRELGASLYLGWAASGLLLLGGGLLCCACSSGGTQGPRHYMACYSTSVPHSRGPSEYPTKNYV
# T3: CLDN9-GFP expressed on engineered HEK293T cells (human, UniProt O95484 1-217)
# T3 construct: whole, on cells; also called HEK293T CLDN9-mGFP; Artificial CLDN9+; not shown: GFP tag
# T3 sequence (looked up): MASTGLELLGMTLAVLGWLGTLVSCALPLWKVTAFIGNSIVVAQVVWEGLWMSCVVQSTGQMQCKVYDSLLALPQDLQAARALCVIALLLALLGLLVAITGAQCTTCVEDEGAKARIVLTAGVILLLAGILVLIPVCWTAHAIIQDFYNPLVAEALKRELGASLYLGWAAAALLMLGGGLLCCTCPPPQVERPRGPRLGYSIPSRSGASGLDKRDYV
# B1: AB3-7 (antibody, V domains shown)
# VH: EVQLLESGGGLVQPGGSMRLSCAASGFTFSNYWMNWVRQAPGKGLEWVAQIRLKSDNYATHYADSVKGRFTISRDDSKNTVYLQMNSLRAEDTGVYYCNDGPPSGSWGQGTLLTVSS
# VL: DIQMTQSPSSLSASVGDRVTITCRISENIYSYLAWYQQKPGKAPKLLVYNAKILVEGVPSRFSGSGSGTDFTLTISSLQPEDFGTYYCQHHYTVPWTFGQGTKLEIK
# notes: Humanized; also called humanized AB3-7; AB23
# B2: AB3-7 conjugated to MC-VC-PAB-MMAE (conventional) (antibody, V domains shown)
# VH: B1 VH
# VL: B1 VL
# modifications: MC-VC-PAB-MMAE conjugated to the antibody, heterogeneous (conventional); sites not stated
# notes: Antibody-drug conjugate of humanized AB3-7 (WuXi Biologics); also called CLDN6 ADC; ADC-23 (conventional)
# B3: AB3-7 conjugated to MC-GGFG-DXD (antibody, V domains shown)
# VH: B1 VH
# VL: B1 VL
# modifications: MC-GGFG-DXD conjugated to the antibody; sites not stated
# notes: Antibody-drug conjugate of humanized AB3-7; also called CLDN6 ADC
# B4: AB3-7 conjugated to CL2A-SN38 (conventional) (antibody, V domains shown)
# VH: B1 VH
# VL: B1 VL
# modifications: CL2A-SN38 conjugated to the antibody, heterogeneous (conventional); sites not stated
# notes: as for B3
# B5: AB3-7 conjugated to MC-VC-PAB-MMAE (D4 technology) (antibody, V domains shown)
# VH: B1 VH
# VL: B1 VL
# modifications: MC-VC-PAB-MMAE conjugated to the antibody, substantially 4 drugs per antibody (D4); sites not stated
# notes: Antibody-drug conjugate of humanized AB3-7; also called CLDN6 ADC; ADC-23 (D4 technology)
# B6: AB3-7 conjugated to MC-GGFG-MMAE (D4 technology) (antibody, V domains shown)
# VH: B1 VH
# VL: B1 VL
# modifications: MC-GGFG-MMAE conjugated to the antibody (D4); sites not stated
# notes: as for B3
# B7: AB3-7 conjugated to CL2A-SN38 (D4 technology) (antibody, V domains shown)
# VH: B1 VH
# VL: B1 VL
# modifications: CL2A-SN38 conjugated to the antibody (D4); sites not stated
# notes: as for B3
# B8: AB3-7 conjugated to MC-VC-PAB-DXD (antibody, V domains shown)
# VH: B1 VH
# VL: B1 VL
# modifications: MC-VC-PAB-DXD conjugated to the antibody; sites not stated
# notes: as for B3
# B9: AB2 (antibody, V domains shown)
# VH: EVKLEESGGGLVQPGGSMKLSCVASGFTFSDYWMNWVRQSPEKGLEWVAQIRLKSDNYATHYAESVKGRFTISRDDSKRSVYLQMNNLRAEDTGTYYCNDGPPSGCWGQGTTLIVSS
# VL: DIQMTQSPASLSASVGETVTITCRISENIYSYLAWYQQKQGKSPQLLVYNAKILVEGVPSRFSGSGSGTQFSLKINSLQPEDFGNYYCQHHYTVPWTFGGGTKLEIK
# notes: Full-length IgG (ExpiCHO)
# B10: AB3 (antibody, V domains shown)
# VH: B9 VH with D31N
# VL: B9 VL
# notes: Full-length IgG (ExpiCHO)
# B11: AB1 (antibody, V domains shown)
# VH: QVQLQQSAAELARPGASVKMSCKASGYTFTTYTMHWVKQRPGQGLEWIGFINPSSGYTDYNQKFKDRTTLTADKSSSTVYMQLSSLTSEDSAVYYCANGDYYVAYWGQGTLVTVSA
# VL: QIVLTQSPAIMSASLGERVTMTCTASSSVSSTYFHWYQQKPGSSPKLWIYSTSNLASGVPRRFSGSASGTSYSLTISSMEAEDAATYYCHQYHRSPLTFGAGTKLELK
# notes: Full-length IgG (ExpiCHO)
# B12: AB4 (antibody, V domains shown)
# VH: QVQLQQSGAELARPGASVKMSCKASGYTFTSYTMHWIKQRPGQGQEWIGYINPSSTYTHYIKKFKDKATLTADKSSSTAYMQLRSLTSEDSAVYYCSRGELGGFAYWGQGTLVTVSA
# VL: DVVMTQTPLSLPVSLGDQASISCRSSQSLVHSDGNTYLNWYLQKPGQSPKLLIYKVSNRFSGVPDRFSGSGSGTDFTLKIRRVEAEDLGVYFCSQSTHVPYTFGGGTKLEIK
# notes: Full-length IgG (ExpiCHO)
# B13: AB5 (antibody, V domains shown)
# VH: EVQLQQSGPELVKPGASVKMSCKASGYIFTHYIMHWVKQKPGQGLEWIGCINPYNDGTKYNEKFKGKATLTSDKSSSTAYMELSSLTSEDSAVYYCARYYGYPYYSMDYWGQGTSVTVSS
# VL: DVLMTQTPLSLPVSLGDQPSISCRSSQSIVHSNGNTYLDWYLQKPGQSPKLLIYKVSNRFSGVPDRFSGSGSGTDFTLKISRVEAEDLGVYYCFQGSHVPFTFGSGTRLEIK
# notes: Full-length IgG (ExpiCHO)
# B14: AB18 (antibody, V domains shown)
# VH: QVQLKQSGPELEKPGASVKISCKASGYSFTGYNMNWVKQSNGKSLEWIGNIDPYYGGSTYNQKFTGKATLTVDKSSSTAYMQLKSLTSEDSAVYYCARERSGYVFSAMDYWGQGTSVTVSS
# VL: NIMMTQSPSSLAVSAGEKVTMSCKSSQSVLFSSNQKNYLAWYQQKPGQSPRLLIYWASTRESGVPDRFTGSGSGTDFTLTISNVQAEDLAVYYCHQYLSSRTFGAGTKLELK
# notes: Full-length IgG (ExpiCHO)
# B15: AB9 (antibody, V domains shown)
# VH: EVQLQQSGPELVKPGASVKMSCKASGYRFTDYNMHWVKQSHGKSLEWIGYINPNNGGTNYNQNFKGKATLTVNKSSSTAYMELRSLTSEDSAAYYCARDYLYFFDCWGQGTTLTVSS
# VL: DIQMTQSPASQSASLGESVTITCLASQTIGTWLAWYQQKPGKSPQLLIYAAASLADGVPSRFSGSGSGTRFSFKISSLQAEDFVSYYCQQLYSIPRTFGGGTKLEIK
# notes: Full-length IgG (ExpiCHO)
# B16: AB10 (antibody, V domains shown)
# VH: QIQLVQSGPALKKPGETVKISCKASGYTFTDYSMHWIKQAPGKGLKWMGWISTETGEPTYADGFKGRFDFSLETSADTAYLSINNLTNEDTATYFCTRGLWSSFAYWGQGTLVTVSA
# VL: B12 VL with S25A, D33N, N39H, Y41F, G73R, R81S, S96I
# notes: Full-length IgG (ExpiCHO)
# B17: AB14 (antibody, V domains shown)
# VH: QVQLQQSGPELVRPGVSVKISCKGSGYTFTDYAMHWVKQSHAKSLEWIGVISTYSGNTNYNQKFQDKATMTVDKSSSTAYMALARLTSDDSAIYYCARRGDYSLYAMDYWGQGTSVTVSS
# VL: DIVLTQSPASLAVSLGQRATISCKASQSVDYDGDNYVNWYQQKVGQPPKLLISAASNLESGIPARFSGSGSGTDFTLNIHPVEEEDAATYYCQQSNEDPFTFGSGTKLEIK
# notes: Full-length IgG (ExpiCHO)
# B18: AB13 (antibody, V domains shown)
# VH: QVQLQQSGAELVRPGTSVKVSCKASGYAFSNYLIEWVKQRPGQGLEWIGVINPGSGGTNYNEKFKGKATMTADKSSSTAYMHLSNLTSEDSVVYFCARSYFGRSYPYTMDYWGQGTSVTVSS
# VL: EIVLTQSPTTMAASPGEKITITCSASSSISSNYLHWYQQKPGFSPKLLIYRTSNLASGVPARFSGSGSGTSYSLTIGTMEAEDVATYYCQQGSSIPLTFGAGTKLELK
# notes: Full-length IgG (ExpiCHO)
# Target: T1, human CLDN6, endogenously expressed on …
# Experiment: FACS, ARK2 cells, 1.5 ug Ab
row,FACS signal,Binder
1,90400,B1

# Target: T2, mouse CLDN6 fused to GFP, expressed on …
# Experiment: FACS, 293T clone with mouse CLDN6
row,FACS signal,Binder
1,56100,B1

# Target: T1, human CLDN6, endogenously expressed on …
# Experiment: flow cytometry on UMUC4 cells (Positive Cell Line), anti-human IgG Fc secondary antibody
flow cytometry signal at 0.1µg Ab/Sample,flow cytometry signal at 1µg Ab/Sample,Binder
8910,28800,B2
8820,27300,B1
10500,32800,B3
9990,33800,B4
9450,25900,B5
8790,31600,B6
9140,34600,B7
10800,32600,B8

# Target: T2, mouse CLDN6 fused to GFP, expressed on …
# Experiment: FACS dose curve, labelled mAb, HEK293T-CLDN6-mGFP (mouse) cells
row,EC50,Binder
1,≥ 5000 nM,B9
2,2490 nM,B10
3,72 nM,B11
4,≥ 5000 nM,B12
5,11 nM,B13

# Target: T1, human CLDN6, endogenously expressed on …
# Experiment: FACS dose curve, labelled mAb, OVCA429 cells
row,EC50,Binder
1,912 nM,B9
2,1100 nM,B10
3,2440 nM,B14
4,84 nM,B11
5,1160 nM,B15
6,168 nM,B12
7,2470 nM,B16
8,1660 nM,B17
9,5 nM,B13
10,2290 nM,B18

# Target: T3, CLDN9-GFP expressed on engineered …
# Experiment: FACS dose curve, labelled mAb, HEK293T CLDN9-mGFP cells
row,EC50,Binder
1,2760 nM,B11
2,1860 nM,B12
3,246 nM,B16
4,25 nM,B13

# Target: T1, human CLDN6, endogenously expressed on …
# Experiment: FACS dose curve, labelled mAb, ARK2 cells
row,EC50,Binder
1,1360 nM,B9
2,1650 nM,B10
3,1350 nM,B14
4,105 nM,B11
5,1140 nM,B15
6,48 nM,B12
7,2140 nM,B16
8,1300 nM,B17
9,8 nM,B13
10,1150 nM,B18

# Target: T1, human CLDN6, endogenously expressed on …
# Experiment: FACS, ARK2 cells, 0.3 ug Ab
row,FACS signal,Binder
1,36000,B1
